Source: the nanobody polyreactivity screen of Harvey et al. (2022)

Test: yeast display, Sf9 membrane polyspecificity reagent, FACS + sequencing; frameworks hold sequencing errors
Procedure, shortened: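 Polyreactivity labels are assigned by the sorting gate from which each nanobody was recovered. The gates were low and high (top ~1%), set on anti-HA fluorescence for expression and streptavidin fluorescence for reagent binding. Before sorting, galactose-induced (36–48 hours) yeast display cells were stained for 1 hour at 4 °C with 10% biotinylated, detergent-solubilized Sf9 membrane reagent.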

| Sequence | polyreactivity (PSR sort gate) |
| --- | --- |
| QVQLVESGGGLVQAGGSLRLSCAASGRIFYFNAMGWYRQAPGKEREFVASINSIGDSTYYADSVKGRFTISRDNAKNTVYIQMNSQKPEDTAVYYCKADHGVINYRLDYWGHGTQVTVSS | low polyreactivity |
| QVQLVESGGGLVQAGGSLRLSCAATGSIFLYYAMGWYRQAPGKERELVAGINRVGSTNYADSVKGRFTISRDNAKNTVYLELNSLKPEDTAVYYCAAKYRNRYDYWGQGTQATVSS | low polyreactivity |
| QVQIVESGGGIVQAGGSLRLSSAASGSTFSFYVMGWYRHAPGKEREWVAAISWSSVGTYYADSVKGRFTISRDNAKNTVYLQMNSLKPDDTAVYYCAAERYRRVAKHGYWGQGTQVTVSS | high polyreactivity |
| QVQLVESGGGLVQAGGSLRLICAASGRTFKQYAMGWSRQAPGTERELVAAITSSGGSTYYADSVKGRFTISRDNAKNTVYLQMNSLKPEDTAVYYCAAATRGSGRRYDYWGQGTQVTVSS | high polyreactivity |
| QVQHVESGGGLVQAGGSLRLSCAASGSIFYYYTMGWYRQAPGKERELVAAITSGGSTYYADSVKGRFTISRDNAKNTVYIQMNSLKPDDTAVYYCAAEYHSFLWDMDYWGQGTQVTVST | high polyreactivity |
| QDQLVESGGGLVQAGGSLRLSCAPSGFILATNAMGWYRPAPGKERELVAAISYSCGSTNYADSVKGRFTISRDNAKNTVYLQMISLKPVDTAVYYCNDGGSVIWAWYGPVYSWGQGTQVTVSS | low polyreactivity |
| QVQLVESGGGLVQAGGSLRLSCAASGSTFYFYVMGWYRQAPGKERELVARISWSGGSTYYADSVKGRFTISRDNAKNTVYLQMNSLKPEDTAVYYCARQYKYPSSGEYDSWGQGTQVTVSS | low polyreactivity |
| QVQLVESGGGLVQAGGSLRLSCAASGITFTRYTMGWYRPAPGKERELVAAITGGSTYYADSVKGRFTISRDNAKNTVYLQMNSLKPEDTAVYYCAAAYESPYIQPLDYWGQGTQVTVSS | high polyreactivity |
| QVQLVESGGGLVQAGGSLRLSCGASGSIFYGYAMGWYRQAPGKERELVAAITLSGRRTYYADSVKGRFTISRDNAKNTVDSQMNTLKPEDTEVYYCAKHYPYPTEMNYWGQGTQVTVTS | high polyreactivity |
| QVQLVESAGGLVQEGGSLRLSCAASGSTFPYYAMGWYRQAPGKERELVAAISQNGGSTYYADSVKGRFTISRDNAMNTVYLQMNRLKPEDTAVYYCNADGVGGEYRLSGYAYWGQGTQVTVSS | low polyreactivity |
| QVQLVESGGGLVQAGGSLRLSCAASGFIFRQYAMGWYRQAPGKERELVAAISWSGGSTYYADSVKGRFTISRDNAKNTVYLQMNSLKPEDTAVYYCNVLTPPTDYDYWGQGTQVTVSS | high polyreactivity |
| QVQLVESGGGLVQAGGSLRLSCAASGFIFGRNAMGWYRQAPGKERELVAGISSSGVRTFYADSVKGRFTISRDNAKNTVYLQMNSLKPEDTAVYYCATRGRVYPTKYSLDEDYWGQGTQVTVSS | high polyreactivity |
| QVQLVESGGGLVQAGGSLRLSCAASGSIFGYYGMGCYIQAPGKERELVAAISARGGSTYYADSVKGRFTISRDNAKNTVYFQMNRLKPEDTAVYYCAVRYPGSRYLISKNGYWGQGTQVTVSS | high polyreactivity |
| QVQLVESGGGLVQAGGSLRLSCAASGSIFTYYAMGWYRKAPGKERELVAAITKSGGRTYYAHSVMGRFTISRDNAKNTVYLQMNRLKPEDTAVYYCAALYGRYQTSYQFDYWGQGTQVTVSS | high polyreactivity |
| QVQLVESGGGLVQAGGSLRLSCAASGSTFRYYTMGWYRQAPGKERELVAAITWSGGSTYYADSVKGRFTISRDNAKNTVYLQMNSLKPEDTAVYYCAADRYSYGSNGYPRFEYYYWGQGTQVTVSS | high polyreactivity |
| QVQLVESGGGLVQAGGSLRLSCAASGSIFSGNAMGWYRQAPGKERELVAAIDWSGDSTYYADSVKGRFTISRDNAKNTVYLQMNSLKPEDTAVYYCNTVSFSWGYSAYDYWGQGTQVTVSS | low polyreactivity |
| QVQLVESGGGLVQAGGSLRLSCAASGSTFSINAMGWYRQAPGKERELVAAISWRGSGTYYADSVKGRFTISRDNAKNTVYLQMNSLKPEDTAVYYCAAEWDRPLYYPWYVEYDYWGQGTQVTVSS | high polyreactivity |
| QVQLVESGGGLVQAGGSLRLSCAASGSIFFGNAMGWYRQAPGKERELVAAISTTGGSTYYADSVKGRFTISRDNEKNTVYLQMNSLKPEDTAVYYCNADRATWWEQWWYDYWGHGTQVTVSS | low polyreactivity |
| QVQVVESGGGLVQAGGSLRLSCAASGFTFSFNAMGSYRQAPWKERELVAAIDRGVSTYYADSVKGRFTISRDNAKNTVYLQMKSLKPEDTAVSYCAVEYWEPYDMDYWGQGTQVTVSS | high polyreactivity |
| QVQLVESGGGLVQAGGSLRLSCAASGRIFGGNAMGWYRQAPGKERELVAAITSGGTTNYADSVKGRFTISRDNAKNTVYLQMNSLKPEDTAVYYCAADFKPLYYDEYDYWGQGTQVTVSS | low polyreactivity |
| QVQLVESGGGLVQAGGSLRLSCAASGSIFAQYAMGWYRQAPGKETELVAAISYRGGRTYYADSVKGRFTISRDNAKNTVYLQMNSLKPEDTAVYYCNADSSSYSSDLGYDYWGQGTQVTVSS | low polyreactivity |
| QVQLVESGGGLVQAGGSLRLSCAASGRTFEHYAMVWYRPAPGKERELVAAITWSGVSTYYADSVKGRFTISRDNAKNTVYLQMNSLKPEDTAVYYCAAKWLGYGFDYWGQGTQVTVSS | low polyreactivity |
